Measurements published in patent US20250011363A1, “OPTIMIZED SHORTENED PEPTIDE THAT BINDS TO ACETYLCHOLINE RECEPTOR, AND USE THEREOF” (SKINMED CO., LTD., priority 2021, published 2025).

What follows are binders tested against acetylcholine receptor (assay: SPR, receptor immobilized, peptide 10 uM).

| Binding affinity (RU) | Binder |
| --- | --- |
| 12 | RNEFR [5mer-765] |
| 24 | RAPWR [5mer-1062] |
| 26 | RETGK [5mer-1070] |
| 29 | RMAGR [5mer-1059] |
| 21 | KMPER [5mer-762] |
| 30 | RCHVR [5mer-763] |
| 11 | RDSWR [5mer-768] |
| 31 | RPSFK [5mer-1069] |
| 20 | RPHVK [5mer-1063] |
| 11 | RMHKK [5mer-1068] |
| 11 | KKPFR [5mer-770] |
| 24 | RKWVK [5mer-771] |
| 25 | KIPWR [5mer-1058] |
| 16 | RYEGR [5mer-1071] |
| 19 | RIWAR [5mer-760] |
| 11 | KYWFK [5mer-772] |
| 12 | RFHFK [5mer-767] |
| 23 | RHTVK [5mer-775] |
| 17 | KHKMR [5mer-759] |

| Binding affinity (RU) | Binder |
| --- | --- |
| 30 | RNMEK [5mer-766] |
| 17 | KYCMR [5mer-757] |
| 25 | RTCDR [5mer-774] |
| 29 | KTHIK [5mer-1060] |
| 31 | RMPWR [5mer-761] |
| 18 | KNPIR [5mer-1065] |
| 19 | KTWPK [5mer-764] |
| 23 | KHENK [5mer-1067] |
| 25 | RPNMR [5mer-773] |
| 29 | RDEAK [5mer-1073] |
| 30 | KCDFK [5mer-758] |
| 32 | KDWPK [5mer-1072] |
| 13 | RFDPK [5mer-1057] |
| 32 | KTEWK [5mer-769] |
| 17 | RPCPR [5mer-1074] |
| 25 | RFWVK [5mer-1066] |
| 20 | KCMKR [5mer-1064] |
| 24 | KDSFR [5mer-1061] |

What follows are binders tested against acetylcholine receptor (assay: SPR, AchR immobilised on CM5 chip, peptide 10 uM).

| Binder | Binding affinity (RU) |
| --- | --- |
| RKPAGK [6mer-1-944] | 25 |
| KRTKGR [6mer-1-947] | 31 |
| RRMMVR [6mer-1-942] | 37 |
| RKPTNR [6mer-1-937] | 34 |
| RRCEPR [6mer-1-946] | 31 |
| KRNDFK [6mer-1-939] | 41 |
| KKEHDK [6mer-1-943] | 43 |
| RRPWNR [6mer-1-933] | 28 |
| RKTPKK [6mer-1-941] | 29 |
| RKETDR [6mer-1-936] | 36 |
| RKTSIK [6mer-1-945] | 31 |
| KKIAWK [6mer-1-938] | 28 |
| KRFEFK [6mer-1-932] | 38 |
| RKPEDR [6mer-1-940] | 29 |
| RKKDIK [6mer-1-935] | 40 |
| KRPPGK [6mer-1-934] | 39 |
| RKFTVR [6mer-1-948] | 24 |

Results, then the binder that gave them:

| Binding affinity (RU) | Binder |
| --- | --- |
| 23 | RKECFK [6mer-1-955] |
| 29 | RREEDK [6mer-1-963] |
| 32 | RKIEMK [6mer-1-971] |
| 43 | RRHTHK [6mer-1-972] |
| 33 | RKDHWR [6mer-1-969] |
| 29 | RKAMDK [6mer-1-951] |
| 22 | RRNSWK [6mer-1-966] |
| 39 | RREDFR [6mer-1-968] |
| 36 | KRIWDK [6mer-1-965] |
| 29 | RKEDKR [6mer-1-950] |
| 36 | KKIWFR [6mer-1-959] |
| 34 | KRKSNK [6mer-1-956] |
| 24 | RRTEDR [6mer-1-967] |
| 42 | RKFKNK [6mer-1-964] |
| 41 | KKAKGR [6mer-1-954] |
| 42 | KKNCDK [6mer-1-962] |
| 26 | KRTNGK [6mer-1-953] |
| 28 | KRHDKK [6mer-1-952] |
| 43 | KRYAGR [6mer-1-958] |
| 122 | RRTWAR [6mer-1-961] |
| 25 | RRDHVK [6mer-1-973] |
| 34 | KKCPFR [6mer-1-960] |
| 38 | RRCCAR [6mer-1-970] |
| 37 | RKEMPR [6mer-1-949] |
| 43 | KKPPDK [6mer-1-957] |
